Results: US20200157519A1 (IMMUNWORK, published 2020)

Target: T1, human fibrinogen (human, UniProt P02671 20-629; P02675 31-491; P02679 27-437, limits assumed)
T1 construct: Bought protein, used as the negative control antigen; also called fibrinogen from human (Sigma)
T1 sequence (looked up) 1: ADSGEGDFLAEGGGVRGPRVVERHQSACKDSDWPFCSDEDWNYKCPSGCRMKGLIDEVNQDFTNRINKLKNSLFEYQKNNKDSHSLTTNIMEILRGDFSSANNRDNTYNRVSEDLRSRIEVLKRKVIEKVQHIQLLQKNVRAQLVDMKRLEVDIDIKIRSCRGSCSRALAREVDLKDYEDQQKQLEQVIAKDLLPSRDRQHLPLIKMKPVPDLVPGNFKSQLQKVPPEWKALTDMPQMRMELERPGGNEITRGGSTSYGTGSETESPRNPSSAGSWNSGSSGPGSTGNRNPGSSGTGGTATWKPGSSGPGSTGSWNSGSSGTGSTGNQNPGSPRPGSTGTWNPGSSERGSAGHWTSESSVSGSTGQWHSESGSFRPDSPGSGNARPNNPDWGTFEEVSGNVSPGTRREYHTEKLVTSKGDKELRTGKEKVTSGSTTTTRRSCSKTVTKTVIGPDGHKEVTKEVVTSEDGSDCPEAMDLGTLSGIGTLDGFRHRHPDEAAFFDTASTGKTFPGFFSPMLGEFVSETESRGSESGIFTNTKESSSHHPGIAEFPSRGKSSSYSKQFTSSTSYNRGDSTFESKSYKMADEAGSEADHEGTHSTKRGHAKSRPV
T1 sequence (looked up) 2: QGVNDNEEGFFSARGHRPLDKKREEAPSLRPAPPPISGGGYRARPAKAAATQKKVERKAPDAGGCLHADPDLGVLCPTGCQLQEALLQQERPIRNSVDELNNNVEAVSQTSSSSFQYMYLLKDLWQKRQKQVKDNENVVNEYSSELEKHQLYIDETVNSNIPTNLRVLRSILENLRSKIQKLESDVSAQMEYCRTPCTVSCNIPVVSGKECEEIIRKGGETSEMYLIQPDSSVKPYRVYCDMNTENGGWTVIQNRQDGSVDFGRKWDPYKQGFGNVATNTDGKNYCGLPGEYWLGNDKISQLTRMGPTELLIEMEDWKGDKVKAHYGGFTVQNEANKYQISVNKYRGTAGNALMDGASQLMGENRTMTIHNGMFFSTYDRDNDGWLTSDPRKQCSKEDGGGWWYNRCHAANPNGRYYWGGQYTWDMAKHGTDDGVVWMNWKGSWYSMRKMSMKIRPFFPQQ
T1 sequence (looked up) 3: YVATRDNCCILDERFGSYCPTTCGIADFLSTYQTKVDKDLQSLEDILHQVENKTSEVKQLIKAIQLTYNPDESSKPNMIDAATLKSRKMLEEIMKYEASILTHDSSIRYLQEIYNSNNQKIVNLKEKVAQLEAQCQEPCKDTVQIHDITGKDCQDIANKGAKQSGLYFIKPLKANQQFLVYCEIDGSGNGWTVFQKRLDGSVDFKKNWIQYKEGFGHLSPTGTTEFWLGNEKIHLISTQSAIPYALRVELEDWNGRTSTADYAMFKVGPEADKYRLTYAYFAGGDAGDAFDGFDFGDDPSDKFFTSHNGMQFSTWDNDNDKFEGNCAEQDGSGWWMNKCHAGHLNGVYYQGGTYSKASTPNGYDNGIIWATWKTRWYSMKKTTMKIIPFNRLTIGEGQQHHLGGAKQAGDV
Experiment: ELISA, HRP-conjugated polyclonal rabbit anti-reteplase antibody

B1: recombinant (3D5 VL-(G4S)3-VH scFv α fibrin)-reteplase polypeptide (other)
chain: DIQMTQSPSSLSASVGDRVTITCRASQDVSNNVAWYQQKPGKAPKLLIFWSPWLYSGVPSRFSGSGSGTDFTLTISSLQPEDFATYYCQQGWDSPVTFGQGTKVEIKRGSTSGSGKPGSGEGSTKGEVQLVESGGGLVQPGGSLRLSCAASGFTISDFGIHWVRQAPGKGLEWVASIWPSGGYTYYADSVKGRFTISADTSKNTAYLQMNSLRAEDTAVYYCARSWFYSWYDYWGQGTLVTVSSASGGGGSGGGGSGGGGSSYQGNSDCYFGNGSAYRGTHSLTESGASCLPWNSMILIGKVYTAQNPSAQALGLGKHNYCRNPDGDAKPWCHVLKNRRLTWEYCDVPSCSTCGLRQYSQPQFRIKGGLFADIASHPWQAAIFAKHRRSPGERFLCGGILISSCWILSAAHCFQERFPPHHLTVILGRTYRVVPGEEEQKFEVEKYIVHKEFDDDTYDNDIALLQLKSDSSRCAQESSVVRTVCLPPADLQLPDWTECELSGYGKHEALSPFYSERLKEAHVRLYPSSRCTSQHLLNRTVTDNMLCAGDTRSGGPQANLHDACQGDSGGPLVCLNDGRMTLVGIISWGLGCGQKDVPGVYTKVTNYLDWIRDNMRPA
notes: Fusion: 3D5 scFv (VL, flexible linker, VH) at the N-terminus of reteplase through a flexible linker; also called (3D5 scFv)-reteplase
- binding result: no binding
